From patent US20200332015A1 (NAMAB THERAPEUTICS, published 2020) come the findings set out here.

In assay [1] the target is T1, human CD137 expressed on Jurkat cells (human, UniProt Q07011 24-255). Kind of assay: cell-based or functional assay.
In assay [2] the target is T1, human CD137 expressed on Jurkat cells. In words: cell-based or functional assay. This is another data set of the same source.
Assay [3] has the same target. Kind of assay: cell-based or functional assay. This is another data set of the same source.
For assay [4] the target is unchanged. In words: cell-based or functional assay. This is another data set of the same source.
The target in another assay is T2, human serum albumin (human, UniProt P02768 25-609).
T2 construct: also called human SA; HSA
In words: SPR T200, SA coupled to chip, pH 5.5. The method, then:
(§1) Affinity of molecules to serum albumin (SA) of the different species was determined by SPR measurements using a Biacore T200 device (GE Healthcare). SA was directly coupled to a CM5 sensor chip (GE Healthcare) using amine coupling chemistry. […] The assay was run in a 1×PBS-Tween buffer at pH 5.5.

A further assay concerns the target T3, mouse serum albumin (mouse, UniProt P07724 25-608).
T3 construct: also called mouse SA; MSA
In words: SPR T200, SA coupled to chip, pH 5.5. As for the experimental part:
as §1

Assay [5] deals with human PDL1-Fc chimeric protein (human, UniProt Q9NZQ7 19-238, limits assumed). In words: SPR T200, antigen-Fc captured, molecule as analyte. As for the experimental part: (§2) Affinity to PDL1 of the different species was determined by SPR measurements using a Biacore T200 device (GE Healthcare). An antibody specific for the Fc region of human IgGs was immobilized on a sensor chip (CM5 sensor chip, GE Healthcare) by amine-coupling. For all formats, with the exception of the Fc containing Morrison formats, PDL1-Fc chimeric protein from different species were captured by the immobilized antibody. Three-fold serial dilutions of the molecules specific for PDL1 (0.12-90 nM) were injected into the flow cells for three minutes and dissociation was monitored for 10 minutes. After each injection cycle, surfaces were regenerated with one injection of a 3 M MgCl₂ solution. The apparent dissociation (kd) and association (kₐ) rate constants and the apparent dissociation equilibrium constant (KD) were calculated using one-to-one Langmuir binding model. Affinity to CD137 of the different species was determined using the identical setup as for PDL1 with the exception that CD137-Fc chimeric proteins from different species were captured by the immobilized antibody.

The target of assay [6] is T4, Fc tagged human CD137 (R&D Systems, cat. 838-4B-100) (human, UniProt Q07011 24-186).
T4 construct: also called CD137 Fc chimera; human CD137-Fc chimeric protein
In words: SPR T200, antigen-Fc captured, molecule as analyte. The method, then: as §2

For assay [7], the target named is T5, cynomolgus monkey Fc-tagged CD137 (R&D Systems, cat. 9324-4B-100) (cynomolgus monkey, UniProt A9YYE7 24-186).
T5 construct: also called cynomolgus CD137-Fc chimeric protein
T5 sequence (A9YYE7 entry or part of it): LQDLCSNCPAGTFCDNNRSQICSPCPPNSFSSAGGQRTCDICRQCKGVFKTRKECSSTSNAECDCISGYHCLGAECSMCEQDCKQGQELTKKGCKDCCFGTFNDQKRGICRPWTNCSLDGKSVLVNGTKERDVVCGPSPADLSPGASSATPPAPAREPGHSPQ
Kind of assay: SPR T200, antigen-Fc captured, molecule as analyte. As for the experimental part:
as §2

The target of assay [8] is T6, mouse Fc-tagged mouse CD137 (R&D Systems, cat. 937-4B-050) (mouse, UniProt P20334 24-187).
T6 construct: also called mouse CD137-Fc chimeric protein
T6 sequence (looked up): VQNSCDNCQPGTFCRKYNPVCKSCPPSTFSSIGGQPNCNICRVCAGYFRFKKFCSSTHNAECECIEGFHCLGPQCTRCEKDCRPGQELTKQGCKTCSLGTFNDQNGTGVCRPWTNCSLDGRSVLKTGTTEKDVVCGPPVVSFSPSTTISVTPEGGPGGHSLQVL
Kind of assay: SPR T200, antigen-Fc captured, molecule as analyte. The method, then:
as §2

B1: PRO1057 (38_02_A04 sc01 scDb-i/33-03-G02 sc01 scDb-o/mxr HSA (23-13-A01-sc03, sk17sh4)) (other)
chain: DIQMTQSPSSLSASVGDRVTITCQASQSINDYLAWYQQKPGKAPKLLIYKASTLASGVPSRFSGSGSGTDFTLTISSLQPEDFATYYCQQGYIITDIDNVFGTGTKVTVLGGGGGSQVQLQESGPGLVKPSETLSLTCKVSGFSFSNSYWICWIRQPPGKGLEWIGCTFVGSSDSTYYANWAKGRVTISVDSSKNQFSLKLSSVTAADTAVYYCARHPSDAVYGYANNLWGQGTLVTVSSGGGGSGGGGSGGGGSGGGGSIQMTQSPSSLSASVGDRVTITCQASQSINNVLAWYQQKPGKAPKLLIYRASTLASGVPSRFSGSGSGTDFTLTISSLQPEDFATYYCQSSYGNYGDFGTGTKVTVLGGGGGSQVQLQESGPGLVKPSETLSLTCKVSGFSFSSGYDMCWIRQPPGKGLEWIGCVVAGSVDITYYASWAKGRVTISVDSSKNQFSLKLSSVTAADTAVYYCARKDAYSDAFNLWGQGTLVTVSSGGGGSGGGGSVVMTQSPSSLSASVGDRVTITCQASQIISSRSAWYQQKPGQPPKLLIYQASKLASGVPSRFSGSGSGTDFTLTISSLQPEDFATYYCQCTYIDSNFGAFGGGTKLTVLGGGGGSGGGGSGGGGSGGGGSEVQLVESGGGLVQPGGSLRLSCAASGFSFSSSYWICWVRQAPGKGLEWVGCVFTGDGTTYYASWAKGRFTISRDNSKNTVYLQMNSLRAEDTATYFCARPVSVYYYGMDLWGQGTLVTVSS
notes: Trispecific scDb-scFv
For B1, in [1], the “EC50 NFkB-luciferase, CHO-PDL1 cells, 6 h, + HSA” value was 0.112 µg/mL and the “Top of curve fit, NFkB-luciferase, CHO-PDL1 cells, 6 h, + HSA” value worked out at 463. Moreover, in [2], the “EC50 NFkB-luciferase, CHO-PDL1 cells, 24 h, + HBA (so in the source)” value came out at 0.792 µg/mL and the “Top of curve fit, NFkB-luciferase, CHO-PDL1 cells, 24 h, + HBA (so in the source)” value is 745. In assay [3], the “EC50 NFkB-luciferase, HCC827 with IFNy stimulation, +HSA” value was 0.115 µg/mL and the “EC50 NFkB-luciferase, HCC827 without IFNy stimulation, +HSA” value amounted to 0.0766 µg/mL. Also, in assay [4], the “max. activation, HCC827 +IFNg, 24h” value was determined as 135%; the “max. activation, NF-kB reporter gene, CHO-PD-L1, 24h” value amounted to 663%; the “rel. IC50 (urelumab/test), HCC827 +IFNg, 24h” value is 0.46 ratio; the “rel. IC50 (urelumab/test), HCC827 -IFNg, 24h” value was determined as 0.62 ratio. Besides, the “rel. IC50 (urelumab/test), NF-kB reporter gene, CHO-PD-L1, 24h” value in assay [4] came to 0.1 ratio. In the assay with human serum albumin, the equilibrium dissociation constant (Kd) (usually the equilibrium constant for the complex coming apart) amounted to 2.8 nM, the off-rate (koff) (commonly the first-order rate constant of dissociation) came out at 0.00067 s⁻¹ and the kon (commonly the rate constant with which the complex forms) is 240000 M⁻¹ s⁻¹. Besides, in the assay with mouse serum albumin, the dissociation constant (Kd) is 66 nM, the dissociation rate constant (koff) turned out to be 0.0085 s⁻¹ and the kon amounted to 130000 M⁻¹ s⁻¹. Also, in [5], binding was put at a Kd of 0.11 nM, the koff worked out at 0.00017 s⁻¹ and the kon turned out to be 1.6e+06 M⁻¹ s⁻¹. In [6], this molecule yielded a Kd of 5.1 nM, a koff of 0.0007 s⁻¹ and an on-rate (kon) of 140000 M⁻¹ s⁻¹. In assay [7], this molecule came in with a Kd of 4.8 nM, a dissociation rate constant (koff) of 0.00079 s⁻¹ and an on-rate (kon) of 160000 M⁻¹ s⁻¹. In [8], the Kd was found to be 1200 nM, the koff was 0.085 s⁻¹ and the on-rate (kon) is 69000 M⁻¹ s⁻¹.

B2: PRO963 (38_02_A04 sc01 scDb-i/33-03-G02 sc01 scDb-o/19-01-H04-sc03 scFv) (other)
chain: DIQMTQSPSSLSASVGDRVTITCQASQSINDYLAWYQQKPGKAPKLLIYKASTLASGVPSRFSGSGSGTDFTLTISSLQPEDFATYYCQQGYIITDIDNVFGTGTKVTVLGGGGGSQVQLQESGPGLVKPSETLSLTCKVSGFSFSNSYWICWIRQPPGKGLEWIGCTFVGSSDSTYYANWAKGRVTISVDSSKNQFSLKLSSVTAADTAVYYCARHPSDAVYGYANNLWGQGTLVTVSSGGGGSGGGGSGGGGSGGGGSIQMTQSPSSLSASVGDRVTITCQASQSINNVLAWYQQKPGKAPKLLIYRASTLASGVPSRFSGSGSGTDFTLTISSLQPEDFATYYCQSSYGNYGDFGTGTKVTVLGGGGGSQVQLQESGPGLVKPSETLSLTCKVSGFSFSSGYDMCWIRQPPGKGLEWIGCVVAGSVDITYYASWAKGRVTISVDSSKNQFSLKLSSVTAADTAVYYCARKDAYSDAFNLWGQGTLVTVSSGGGGSGGGGSIQMTQSPSSLSASVGDRVTITCQSSESVYSNNQLSWYQQKPGQPPKLLIYDASDLASGVPSRFSGSGSGTDFTLTISSLQPEDFATYYCAGGFSSSSDTAFGGGTKLTVLGGGGGSGGGGSGGGGSGGGGSEVQLVESGGGLVQPGGSLRLSCAASGFSLSSNAMGWVRQAPGKGLEYIGIISVGGFTYYASWAKGRFTISRDNSKNTVYLQMNSLRAEDTATYFCARDRHGGDSSGAFYLWGQGTLVTVSS
notes: Trispecific scDb-scFv (PDL1 x CD137 x SA); also called PRO096 (= PRO1051)
With B2, the Kd in the assay with human serum albumin came to 2.8 nM; in assay [5], 0.066 nM; in assay [6] it was 3 nM. For the same molecule, the koff worked out at 0.0003 s⁻¹ with human serum albumin, 0.00013 s⁻¹ in assay [5] and 0.00062 s⁻¹ in assay [6]. Moreover, the association rate constant (kon) in the assay with human serum albumin came to 110000 M⁻¹ s⁻¹; in assay [5], 2e+06 M⁻¹ s⁻¹; in assay [6] it was 200000 M⁻¹ s⁻¹. In addition, in the assay with mouse serum albumin, the binding result is “no binding”.

B3: PRO1186 (37-20-B03 sc01 / 38-02-A04 sc01 / 23-13-A01 sc03, scDb-scFv) (other)
chain: DIQMTQSPSSLSASVGDRVTITCQASQSIGTYLAWYQQKPGKAPKLLIYRAFILASGVPSRFSGSGSGTDFTLTISSLQPEDFATYYCQSNFYSDSTTIGPNAFGTGTKVTVLGGGGGSQVQLQESGPGLVKPSETLSLTCKVSGFSFSNSYWICWIRQPPGKGLEWIGCTFVGSSDSTYYANWAKGRVTISVDSSKNQFSLKLSSVTAADTAVYYCARHPSDAVYGYANNLWGQGTLVTVSSGGGGSGGGGSGGGGSGGGGSIQMTQSPSSLSASVGDRVTITCQASQSINNVLAWYQQKPGKAPKLLIYRASTLASGVPSRFSGSGSGTDFTLTISSLQPEDFATYYCQSSYGNYGDFGTGTKVTVLGGGGGSQVQLQESGPGLVKPSETLSLTCKVSGFSFNSDYWIYWIRQPPGKGLEWIGSIYGGSSGNTQYASWAQGRVTISVDSSKNQFSLKLSSVTAADTAVYYCARGYVDYGGATDLWGQGTLVTVSSGGGGSGGGGSVVMTQSPSSLSASVGDRVTITCQASQIISSRSAWYQQKPGQPPKLLIYQASKLASGVPSRFSGSGSGTDFTLTISSLQPEDFATYYCQCTYIDSNFGAFGGGTKLTVLGGGGGSGGGGSGGGGSGGGGSEVQLVESGGGLVQPGGSLRLSCAASGFSFSSSYWICWVRQAPGKGLEWVGCVFTGDGTTYYASWAKGRFTISRDNSKNTVYLQMNSLRAEDTATYFCARPVSVYYYGMDLWGQGTLVTVSS
notes: Trispecific scDb-scFv
On to B3, for which, in assay [4], the “max. activation, HCC827 +IFNg, 24h” value stood at 129%; the “max. activation, NF-kB reporter gene, CHO-PD-L1, 24h” value is 152%; the “rel. IC50 (urelumab/test), HCC827 +IFNg, 24h” value stood at 1.88 ratio; the “rel. IC50 (urelumab/test), NF-kB reporter gene, CHO-PD-L1, 24h” value came to 0.97 ratio. In the assay with human serum albumin, this molecule displayed a dissociation constant (Kd) of 2.9 nM, a koff of 0.00072 s⁻¹ and an on-rate (kon) of 250000 M⁻¹ s⁻¹. In the assay with mouse serum albumin, this molecule yielded an equilibrium dissociation constant (Kd) of 43 nM, a koff of 0.0095 s⁻¹ and a kon of 220000 M⁻¹ s⁻¹. For the same molecule, in assay [5], the dissociation constant Kd worked out at 0.0037 nM, the off-rate (koff) was 2.3e-05 s⁻¹ and the on-rate constant (kon) came to 6.2e+06 M⁻¹ s⁻¹. In assay [6], this molecule displayed a Kd of 2.6 nM, a koff of 0.0005 s⁻¹ and a kon of 190000 M⁻¹ s⁻¹.
